Results on 1 molecule are retold here after US20200030425 (published 2020).

By Kd is commonly meant the concentration at which binding is half-saturated. Read a high Kd as lower affinity.

This test concerns the target T1, human ICOS-Fc (human).
T1 chain: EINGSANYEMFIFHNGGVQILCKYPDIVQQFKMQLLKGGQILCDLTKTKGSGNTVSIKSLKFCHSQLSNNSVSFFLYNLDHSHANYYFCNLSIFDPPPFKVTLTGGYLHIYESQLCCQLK
The experiment in a line: SPR 37C.

“And” between values parts separate entries of the source, which are not always exact repeats. Equal entries are not always repeated.

B1: ICOS.33 IgG1f S267E Fab (antibody, V domains shown)
VH: EVQLVESGGGLVKPGGSLRLSCAASGFTFSDYFMHWVRQAPGKGLEWVGVIDTKSFNYATYYSDLVKGRFTISRDDSKNTLYLQMNSLKTEDTAVYYCTATIAVPYYFDYWGQGTLVTVSS
VL: DIQMTQSPSSLSASVGDRVTITCQASQDISNYLSWYQQKPGKAPKLLIYYTNLLAEGVPSRFSGSGSGTDFTFTISSLQPEDIATYYCQQYYNYRTFGPGTKVDIK
B1: the Kd is 52 nM and 65 nM.
